Source: PMC4092090, “Investigation of a MMP-2 Activity-Dependent Anchoring Probe for Nuclear Imaging of Cancer” (PLoS ONE, 2014)
Entries after “also recorded” stand apart in the source; their conditions may differ.

Legend:
[1] = type: physicochemical; settings: pH 7.4
Procedure: The experimental determination of probe partition coefficients (log P values) was performed in 1-octanol and 0.02 M phosphate buffer pH 7.4 where the two phases were pre-saturated with each other. 1-Octanol (200 µl) and phosphate buffer (200 µl) were pipetted into LoBind Eppendorf tubes containing 0.37 MBq of probes. The tube was vortexed for 10 seconds, and centrifuged (5 min, 4000×g). Aliquots (50 µl) from the 1-octanol and buffer phases were transferred into two test tubes for radioactivity counting with a NaI well-type scintillation counter (1470 WIZARD, Perkin Elmer, Kanagawa, Japan). The partition coefficient was calculated using the equation P = (counts/µl in 1-octanol)/(counts/µl in buffer).

[2] = test system: HT1080 human fibrosarcoma cells; assay: Cellular uptake study; type: cell-based; settings: 5×10^5 HT1080 cells, FBS-free DMEM, 37 kBq probe, 30 min incubation, radioactivity counting, Fig. 3a
Procedure: HT1080 human fibrosarcoma cells were purchased from American Type Culture Collection (ATCC, Manassas, VA USA) and cultured in DMEM with low glucose (Invitrogen), 10% fetal bovine serum (FBS), and penicillin/streptomycin. MMP-2 cDNA was cloned into the pENTR vector (Invitrogen) and inserted into the pLenti6 vector (Invitrogen) as previously described, [7]. […] Protein quantitation was performed by BCA protein assay (Thermo Fisher Scientific, Inc. Rockford, IL USA). The cellular uptake study of MDAP3000 pretreated with activated MMP-2 (63 nM) in the presence or absence of GM6001 (100 µM) was performed as described above.

[3] = test system: HT1080 tumor bearing mice; parameters: species or system mouse (Balb/c nu-nu); settings: mouse, in vivo, iv
Procedure: (§1) […]3000 and […] (37 kBq, 100 μl in PBS including 3% bovine serum albumin and 0.1% Tween 80) were injected intravenously into the tail vein of tumor bearing mice. The mice were sacrificed at various post-injection time points (n = 3 for each time point), and the organs of interest including the tumor tissues were collected for determination of the weights. The radioactivity of each sample was measured with a NaI well-type scintillation counter. From fitting to the two phase decay curves for blood radioactivity data analyzed by GraphPad Prism 6 (GraphPad Software, San Diego, CA), whole body pharmacokinetic parameters such as blood half-lives, distribution volume, mean residence time and total clearance were calculated for each of the probes and the values compared. Simple pharmacokinetic analysis using a single tissue compartment model was applied to the biodistribution data to calculate rate constants (K1 and k2) for radioactivity transfer from blood to tumor and clearance from tumor to blood by PMOD version 3.2. In addition, MDAP3000 (7.4 MBq in 200 μl) was injected intravenously into the tail vein of tumor bearing mice for metabolite analysis in tumors excised 3, 6, and 24 hr post injection (n = 2 each). Tumor homogenates were prepared on ice and insoluble material was removed by centrifugation after methanol treatment. The resulting supernatant was analyzed by RP-HPLC.

[4] = test system: HT1080 tumor xenograft; parameters: species or system mouse (Balb/c nu-nu); settings: mouse, in vivo, iv
Procedure: as §1

[5] = test system: HT1080 tumor bearing mice; parameters: species or system mouse (Balb/c nu-nu); settings: mouse, in vivo, iv; remark: listed apart in the source
Procedure: Female Balb/c nu-nu mice (5 weeks old, Japan SLC, Inc., Shizuoka, Japan) were housed under a 12-h light/12-h dark cycle and given free access to food and water. HT1080 cells (5×10^6 cells/100 μl PBS (-)/mouse) were subcutaneously inoculated into the right hind leg of Balb/c nu-nu mice. Animals were used for experiments two weeks after inoculation when the mean tumor size was 5.7±2.2 mm along the major axis. […]3000 and […] (37 kBq, 100 μl in PBS including 3% bovine serum albumin and 0.1% Tween 80) were injected intravenously into the tail vein of tumor bearing mice. The mice were sacrificed at various post-injection time points (n = 3 for each time point), and the organs of interest including the tumor tissues were collected for determination of the weights. The radioactivity of each sample was measured with a NaI well-type scintillation counter. From fitting to the two phase decay curves for blood radioactivity data analyzed by GraphPad Prism 6 (GraphPad Software, San Diego, CA), whole body pharmacokinetic parameters such as blood half-lives, distribution volume, mean residence time and total clearance were calculated for each of the probes and the values compared. Simple pharmacokinetic analysis using a single tissue compartment model was applied to the biodistribution data to calculate rate constants (K1 and k2) for radioactivity transfer from blood to tumor and clearance from tumor to blood by PMOD version 3.2. In addition, MDAP3000 (7.4 MBq in 200 μl) was injected intravenously into the tail vein of tumor bearing mice for metabolite analysis in tumors excised 3, 6, and 24 hr post injection (n = 2 each). Tumor homogenates were prepared on ice and insoluble material was removed by centrifugation after methanol treatment. The resulting supernatant was analyzed by RP-HPLC.

[6] = target: T1, Human-recombinant MMP-2 protein (Homo sapiens, UniProt P08253); assay: Cleavage assay; type: biochemical; settings: activated MMP-2 1–5 nM, 370 kBq probe, 37°C, 2 hr, pH 7.5 assay buffer, RP-HPLC, Fig. 3b
T1 construct: purchased R & D Systems, Inc. 902-MP-010
T1 sequence (P08253 110-660): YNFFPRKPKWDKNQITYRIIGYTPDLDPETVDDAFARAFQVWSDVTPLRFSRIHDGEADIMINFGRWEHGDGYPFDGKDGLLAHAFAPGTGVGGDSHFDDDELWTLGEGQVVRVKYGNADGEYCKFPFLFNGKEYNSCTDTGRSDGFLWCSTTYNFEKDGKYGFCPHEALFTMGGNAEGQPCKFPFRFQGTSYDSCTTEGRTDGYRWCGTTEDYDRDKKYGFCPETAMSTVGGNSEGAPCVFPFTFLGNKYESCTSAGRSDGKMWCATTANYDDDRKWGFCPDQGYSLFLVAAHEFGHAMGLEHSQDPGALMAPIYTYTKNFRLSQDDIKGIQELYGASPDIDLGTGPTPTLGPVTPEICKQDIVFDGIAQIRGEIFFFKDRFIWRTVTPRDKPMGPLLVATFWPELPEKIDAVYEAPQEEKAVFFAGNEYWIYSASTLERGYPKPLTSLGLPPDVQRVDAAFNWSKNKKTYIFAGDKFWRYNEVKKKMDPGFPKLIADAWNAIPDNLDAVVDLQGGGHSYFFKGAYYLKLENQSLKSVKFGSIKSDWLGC
Procedure: Human-recombinant MMP-2 protein (902-MP-010, R & D Systems, Inc., Minneapolis, MN USA) was activated with p-aminophenylmercuric acetate (1 mM) in assay buffer (50 mM Tris-HCl, 150 mM NaCl, 10 mM CaCl2, 5 µM ZnCl2, 0.02% Brij 35, pH 7.5). MDAP1000, MDAP3000, and MDAP5000 (370 kBq) were incubated at 37°C for 2 hr with activated MMP-2 (1–5 nM) and a MMP inhibitor (0 or 100 µM, GM6001, Merck KGaA, Darmstadt, Germany). The reaction was quenched by addition of methanol, and the percentage of cleaved peptide was estimated by RP-HPLC.

Substance	log P (partition coefficient) [1]	Cellular accumulation (radioactivity in tumor cells) [2]	Blood half-life, Fast [3]	Clearance (total clearance) [3]	Distribution volume [3]	Mean residence time [3]	K1, rate constant for transfer from blood to tumor, Mean [4]	Blood clearance (in words) [5]	T/B ratios over the experimental period [5]	Cleavage by MMP-2 [6]
Palmitoyl-Dap(p-SCN-Bn-DTPA-^111In)-10-Adc-Gly-Pro-Leu-Gly-OH [MDAPCV]	0.29±0.07	high accumulation group	250 min	0.0025 mL/min	2.16 mL	860 min	0.0022 mL/g/min	slow blood clearance	less than 0.3	–
Palmitoyl-Dap(p-SCN-Bn-DTPA-^111In)-10-Adc-Gly-Pro-Leu-Gly-Val-Arg-Gly-Lys(ivDde)-PEG5000 [MDAP5000]	−1.04±0.16	significantly lower radioactivity	–	–	–	–	–	–	–	concentration-dependent manner; also recorded: rather low
